Measured values taken from article PMC2728291 (Journal of molecular biology, 2009).

B1: BLIP Asp49Ser mutant (natural protein)
chain: AGVMTGAKFTQIQFGMTRQQVLDIAGAENCETGGSFGDSIHCRGHAAGSYYAYATFGFTSAAADAKVDSKSQEKLLAPSAPTLTLAKFNQVTVGMTRAQVLATVGQGSCTTWSEYYPAYPSTAGVTLSLSCFDVDGYSSTGFYRGSAHLWFTDGVLQGKRQWDLV
B2: BLIP Glu73Tyr mutant (natural protein)
chain: AGVMTGAKFTQIQFGMTRQQVLDIAGAENCETGGSFGDSIHCRGHAAGDYYAYATFGFTSAAADAKVDSKSQYKLLAPSAPTLTLAKFNQVTVGMTRAQVLATVGQGSCTTWSEYYPAYPSTAGVTLSLSCFDVDGYSSTGFYRGSAHLWFTDGVLQGKRQWDLV
B3: BLIP Trp112Arg mutant (natural protein)
chain: AGVMTGAKFTQIQFGMTRQQVLDIAGAENCETGGSFGDSIHCRGHAAGDYYAYATFGFTSAAADAKVDSKSQEKLLAPSAPTLTLAKFNQVTVGMTRAQVLATVGQGSCTTRSEYYPAYPSTAGVTLSLSCFDVDGYSSTGFYRGSAHLWFTDGVLQGKRQWDLV
B4: BLIP Glu31Gln mutant (natural protein)
chain: AGVMTGAKFTQIQFGMTRQQVLDIAGAENCQTGGSFGDSIHCRGHAAGDYYAYATFGFTSAAADAKVDSKSQEKLLAPSAPTLTLAKFNQVTVGMTRAQVLATVGQGSCTTWSEYYPAYPSTAGVTLSLSCFDVDGYSSTGFYRGSAHLWFTDGVLQGKRQWDLV
B5: BLIP Phe142Gly mutant (natural protein)
chain: AGVMTGAKFTQIQFGMTRQQVLDIAGAENCETGGSFGDSIHCRGHAAGDYYAYATFGFTSAAADAKVDSKSQEKLLAPSAPTLTLAKFNQVTVGMTRAQVLATVGQGSCTTWSEYYPAYPSTAGVTLSLSCFDVDGYSSTGGYRGSAHLWFTDGVLQGKRQWDLV

What follows are binders tested against TEM-1 β-lactamase (UniProt P62593 24-286) (assay: enzyme inhibition assay).
Chain of TEM-1 β-lactamase (P62593 24-286): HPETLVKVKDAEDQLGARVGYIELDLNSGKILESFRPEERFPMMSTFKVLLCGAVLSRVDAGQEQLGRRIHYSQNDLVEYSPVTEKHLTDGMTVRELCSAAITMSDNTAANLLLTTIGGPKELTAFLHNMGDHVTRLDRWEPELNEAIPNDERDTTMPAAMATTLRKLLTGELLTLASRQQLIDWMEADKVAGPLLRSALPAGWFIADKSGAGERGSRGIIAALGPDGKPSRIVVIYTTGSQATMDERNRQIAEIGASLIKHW
B1 gave a Ki of 16 nM. For B2, the Ki was 3.7 nM. Binder B3 has a Ki of 3.9 nM. In the case of B4, the Ki is reported as 1.4 nM. For B5, the Ki was 12 nM.
